From patent US20230346885A1 (published 2023)
Substitutions are numbered along the chain they refer to. One block for each binder: values may come before it.

Key:
Test in all cases: binding, other
MAGEC1 peptide on HLA [1] = molecular target: T1, MAGEC1 peptide on HLA (human)
T1 peptide: ILQSSPESA

MAGEC1 peptide on HLA [2] = molecular target: T2, MAGEC1 peptide on HLA (human)
T2 peptide: FLAMLKNTV

KLK4 peptide on HLA = molecular target: T3, KLK4 peptide on HLA (human)
T3 peptide: FQNSYTIGL

MAGEB2 peptide on HLA = molecular target: T4, MAGEB2 peptide on HLA (human)
T4 peptide: KVLEFLAKV

- binding result (MAGEC1 peptide on HLA [1]): recognises
B2: TCR of SEQ ID NOs 425 and 426 (TCR, V domains shown)
Valpha: KQEVTQIPAALSVPEGENLVLNCSFTDSAIYNLQWFRQDPGKGLTSLLLIQSSQREQTSGRLNASLDKSSGRSTLYIAASQPGDSATYLCAVRDDYKLSFGAGTTVTVRA
Vbeta: NAGVTQTPKFRVLKTGQSMTLLCAQDMNHEYMYWYRQDPGMGLRLIHYSVGEGTTAKGEVPDGYNVSRLKKQNFLLGLESAAPSQTSVYFCASSYGPGQIYGYTFGSGTRLTVV

- binding result (KLK4 peptide on HLA): recognises
B5: TCR of SEQ ID NOs 409 and 410 (TCR, V domains shown)
Valpha: KQEVTQIPAALSVPEGENLVLNCSFTDSAIYNLQWFRQDPGKGLTSLLLIQSSQREQTSGRLNASLDKSSGRSTLYIAASQPGDSATYLCAVTAYNTDKLIFGTGTRLQVFP
Vbeta: NAGVTQTPKFRILKIGQSMTLQCTQDMNHNYMYWYRQDPGMGLKLIYYSVGAGITDKGEVPNGYNVSRSTTEDFPLRLLSAAPSQTSVYFCASSYYPGTSTEAFFGQGTRLTVV

- binding result (MAGEB2 peptide on HLA): recognises
B6: TCR of SEQ ID NOs 421 and 422 (TCR, V domains shown)
Valpha: KQEVTQIPAALSVPEGENLVLNCSFTDSAIYNLQWFRQDPGKGLTSLLLIQSSQREQTSGRLNASLDKSSGRSTLYIAASQPGDSATYLCAVESDDYKLSFGAGTTVTVRA
Vbeta: NAGVTQTPKFQVLKTGQSMTLQCAQDMNHNSMYWYRQDPGMGLRLIYYSASEGTTDKGEVPNGYNVSRLNKREFSLRLESAAPSQTSVYFCASSEALGGVTDTQYFGPGTRLTVL

Continued, binder first:

B1: TCR of SEQ ID NOs 429 and 430 (TCR, V domains shown)
Valpha: KQEVTQIPAALSVPEGENLVLNCSFTDSAIYNLQWFRQDPGKGLTSLLLIQSSQREQTSGRLNASLDKSSGRSTLYIAASQPGDSATYLCAVRPFSGGYNKLIFGAGTRLAVHP
Vbeta: NAGVTQTPKFQVLKTGQSMTLQCTQDMNHNYMYWYRQDPGMGLKLIYYSVGAGITDQGEVPNGYNVSRSTTEDFPLRLLSAAPSQTSVYFCASSPEYGYYEQYFGPGTRLTVT
- binding result (MAGEC1 peptide on HLA [1]): recognises

B3: TCR of SEQ ID NOs 431 and 432 (TCR, V domains shown)
Valpha: B2 Valpha with R93G, D94G, D95Y, Y96N, S99I, T105R, V106L, T107A, R109H, A110P
Vbeta: NAGVTQTPKFQVLKTGQSMTLQCAQDMNHNSMYWYRQDPGMGLRLIYYSASEGTTDKGEVPNGYNVSRSTTEDFPLRLLSAAPSQTSVYFCASSLDPLAEAFFGQGTRLTVV
- binding result (MAGEC1 peptide on HLA [2]): recognises

B4: TCR of SEQ ID NOs 427 and 428 (TCR, V domains shown)
Valpha: B2 Valpha with D94N
Vbeta: B2 Vbeta with S107P, V114L
- binding result (MAGEC1 peptide on HLA [1]): recognises

B7: TCR of SEQ ID NOs 411 and 412 (TCR, V domains shown)
Valpha: KQEVTQIPAALSVPEGENLVLNCSFTDSAIYNLQWFRQDPGKGLTSLLLIQSSQREQTSGRLNASLDKSSGRSTLYIAASQPGDSATYLCAVSGGSYIPTFGRGTSLIVHP
Vbeta: NAGVTQTPKFRVLKTGQSMTLLCAQDMNHEYMYWYRQDPGMGLRLIHYSVGEGTTDKGEVPDGYNVSRSTTEDFPLRLLSAAPSQTSVYFCASRKAGYGYTFGSGTRLTVV
- binding result (KLK4 peptide on HLA): recognises

B8: TCR of SEQ ID NOs 419 and 420 (TCR, V domains shown)
Valpha: KQEVTQIPAALSVPEGENLVLNCSFTDSAIYNLQWFRQDPGKGLTSLLLIQSSQREQTSGRLNASLDKSSGRSTLYIAASQPGDSATYLCAVSGGTTDSWGKLQFGAGTQVVVTP
Vbeta: NAGVTQTPKFQVLKTGQSMTLQCAQDMNHEYMSWYRQDPGMGLRLIHYSVGAGITDQGEVPNGYNVSRSTTEDFPLRLLSAAPSQTSVYFCASSFTPYEGYTFGSGTRLTVV
- binding result (MAGEB2 peptide on HLA): recognises

B9: TCR of SEQ ID NOs 423 and 424 (TCR, V domains shown)
Valpha: B8 Valpha with T96A
Vbeta: B8 Vbeta with F95Y, T96S, Y98W, E99T, G100E, Y101A, T102F, S105Q
- binding result (MAGEB2 peptide on HLA): recognises
